Measurements taken from article PMC10371074, “Allosteric control of dynamin-related protein 1-catalyzed mitochondrial fission through a conserved disordered C-terminal Short Linear Motif” (Research Square, 2023).
Where “and” joins values, the source holds several entries; their conditions need not be identical. Equal entries are not always repeated.

B1: human Drp1 (isoform 3) ΔCT6, last six residues (whole CT-SLiM) removed (enzyme, UniProt O00429-4 1-693, looked up)
chain: MEALIPVINKLQDVFNTVGADIIQLPQIVVVGTQSSGKSSVLESLVGRDLLPRGTGIVTRRPLILQLVHVSQEDKRKTTGEENGVEAEEWGKFLHTKNKLYTDFDEIRQEIENETERISGNNKGVSPEPIHLKIFSPNVVNLTLVDLPGMTKVPVGDQPKDIELQIRELILRFISNPNSIILAVTAANTDMATSEALKISREVDPDGRRTLAVITKLDLMDAGTDAMDVLMGRVIPVKLGIIGVVNRSQLDINNKKSVTDSIRDEYAFLQKKYPSLANRNGTKYLARTLNRLLMHHIRDCLPELKTRINVLAAQYQSLLNSYGEPVDDKSATLLQLITKFATEYCNTIEGTAKYIETSELCGGARICYIFHETFGRTLESVDPLGGLNTIDILTAIRNATGPRPALFVPEVSFELLVKRQIKRLEEPSLRCVELVHEEMQRIIQHCSNYSTQELLRFPKLHDAIVEVVTCLLRKRLPVTNEMVHNLVAIELAYINTKHPDFADACGLMNNNIEEQRRNRLARELPSAVSRDKVASGGGGVGDGVQEPTTGNWRGMLKTSKAEELLAEEKSKPIPIMPASPQKGHAVNLLDVPVPVARKLSAREQRDCEVIERLIKSYFLIVRKNIQDSVPKAVMHFLVNHVKDTLQSELVGQLYKSSLLDDLLTESEDMAQRRKEAADMLKALQGASQIIAEI
notes: Dynamin-related protein 1 (Drp1), human, isoform 3 (699 aa residues), with the last six residues R694-W699 removed; also called ΔCT6 Drp1; DCT6 Drp1
B2: human dynamin-related protein 1 (Drp1) isoform 3, wild type, N-terminally His6-tagged (enzyme, UniProt O00429-4 1-699, looked up)
chain: MEALIPVINKLQDVFNTVGADIIQLPQIVVVGTQSSGKSSVLESLVGRDLLPRGTGIVTRRPLILQLVHVSQEDKRKTTGEENGVEAEEWGKFLHTKNKLYTDFDEIRQEIENETERISGNNKGVSPEPIHLKIFSPNVVNLTLVDLPGMTKVPVGDQPKDIELQIRELILRFISNPNSIILAVTAANTDMATSEALKISREVDPDGRRTLAVITKLDLMDAGTDAMDVLMGRVIPVKLGIIGVVNRSQLDINNKKSVTDSIRDEYAFLQKKYPSLANRNGTKYLARTLNRLLMHHIRDCLPELKTRINVLAAQYQSLLNSYGEPVDDKSATLLQLITKFATEYCNTIEGTAKYIETSELCGGARICYIFHETFGRTLESVDPLGGLNTIDILTAIRNATGPRPALFVPEVSFELLVKRQIKRLEEPSLRCVELVHEEMQRIIQHCSNYSTQELLRFPKLHDAIVEVVTCLLRKRLPVTNEMVHNLVAIELAYINTKHPDFADACGLMNNNIEEQRRNRLARELPSAVSRDKVASGGGGVGDGVQEPTTGNWRGMLKTSKAEELLAEEKSKPIPIMPASPQKGHAVNLLDVPVPVARKLSAREQRDCEVIERLIKSYFLIVRKNIQDSVPKAVMHFLVNHVKDTLQSELVGQLYKSSLLDDLLTESEDMAQRRKEAADMLKALQGASQIIAEIRETHLW
notes: Dynamin-related protein 1 (Drp1), human, isoform 3, 699 aa residues; the last six residues R694-W699 (RETHLW) are the CT-SLiM; also called WT Drp1; WT; not shown: His6 (36 aa-residue N-terminal tag), N-terminal, kept

Assays:
[1] = molecular target: the molecule itself; experiment: SEC-MALS; nucleotide-free apo state in solution; Superose 6 10/300 GL column; 5 uM protein at injection (Fig. 1E), other injection concentrations in Fig. S2C
[2] = molecular target: B1; experiment: negative-stain EM; 2-D class averages; apo Drp1 (2 uM) with GIPC-1 (8 uM), 1:4 molar ratio; conditions: both partners purified
[3] = molecular target: the molecule itself; experiment: SEC-MALS; full-length GIPC-1, unliganded, 10 uM at injection; Superdex 200 10/300 GL column; dimer to monomers
[4] = molecular target: B2; experiment: negative-stain EM; Drp1 (1.5 uM) pre-incubated with GIPC-1 (6 uM) for 15 min at room temperature, then CL-containing liposomes (50 uM total lipid) for 15 min; equimolar and 1:4 ratios; conditions: both partners purified
[5] = molecular target: the molecule itself; experiment: negative-stain EM; 2-D class averages of single particles; Drp1 at 2 uM, apo state and with 1 mM GTP

binding result [2]	binding result [4]	Binder	stoichiometry N [1]	stoichiometry N [3]	stoichiometry N [5]
		B1	2 and 4		
		human Drp1 (isoform 3) ΔCT4, last four residues of the CT-SLiM removed (enzyme, UniProt O00429-4 1-695, looked up, Dynamin-related protein 1 (Drp1), human, isoform 3 (699 aa residues), with the last four residues removed; also called ΔCT4 Drp1; ΔCT4/6) MEALIPVINKLQDVFNTVGADIIQLPQIVVVGTQSSGKSSVLESLVGRDLLPRGTGIVTRRPLILQLVHVSQEDKRKTTGEENGVEAEEWGKFLHTKNKLYTDFDEIRQEIENETERISGNNKGVSPEPIHLKIFSPNVVNLTLVDLPGMTKVPVGDQPKDIELQIRELILRFISNPNSIILAVTAANTDMATSEALKISREVDPDGRRTLAVITKLDLMDAGTDAMDVLMGRVIPVKLGIIGVVNRSQLDINNKKSVTDSIRDEYAFLQKKYPSLANRNGTKYLARTLNRLLMHHIRDCLPELKTRINVLAAQYQSLLNSYGEPVDDKSATLLQLITKFATEYCNTIEGTAKYIETSELCGGARICYIFHETFGRTLESVDPLGGLNTIDILTAIRNATGPRPALFVPEVSFELLVKRQIKRLEEPSLRCVELVHEEMQRIIQHCSNYSTQELLRFPKLHDAIVEVVTCLLRKRLPVTNEMVHNLVAIELAYINTKHPDFADACGLMNNNIEEQRRNRLARELPSAVSRDKVASGGGGVGDGVQEPTTGNWRGMLKTSKAEELLAEEKSKPIPIMPASPQKGHAVNLLDVPVPVARKLSAREQRDCEVIERLIKSYFLIVRKNIQDSVPKAVMHFLVNHVKDTLQSELVGQLYKSSLLDDLLTESEDMAQRRKEAADMLKALQGASQIIAEIRE	2 and 4		
binds	binds	mouse GIPC-1 (GAIP interacting protein, C-terminus 1), full length (natural protein, UniProt Q9Z0G0 1-333, looked up, N-terminal IDR, GH1, PDZ and GH2 domains; GST removed after purification by HRV3C proteolysis; also called full-length GIPC-1; source: subcloned in pGEX-6P1, expressed and purified using standard protocols; aggregates removed by centrifugation and/or gel filtration; not shown: GST, N-terminal, cleaved) MPLGLGRRKKAPPLVENEEAEPSRSGLGVGEPGPLGGSAAGESQMGLPPPPAALRPRLVFHTQLAHGSPTGRIEGFTNVKELYGKIAEAFRLPAAEVMFCTLNTHKVDMDKLLGGQIGLEDFIFAHVKGQRKEVEVFKSEEALGLTITDNGAGYAFIKRIKEGSVIDHIQLISVGDMIEAINGQSLLGCRHYEVARLLKELPRGRTFTLKLTEPRKAFDMISQRSAGGHPGSGPQLGTGRGTLRLRSRGPATVEDLPSAFEEKAIEKVDDLLESYMGIRDTELAATMVELGKDKRNPDELAEALDERLGDFAFPDEFVFDVWGAIGDAKVGRY		2	
		B2	4		2
